The text below walks through data of the Human Domainome abundance scans (Beltran et al. 2025).

B1: Chromodomain-helicase-DNA-binding protein 4, residues 365 to 417; numbered along this chain, Q14839 (parent)
chain: YETDHQDYCEVCQQGGEIILCDTCPRAYHMVCLDPDMEKAPEGKWSCPHCEKE
B2: Transcription elongation factor A N-terminal and central domain-containing protein, residues 30 to 77; numbered along this chain, Q8N8B7 (parent)
chain: LTELETIYVTKEHLQETDVVRAVYRVLKNCPSVALKKKAKCLLSKWKA

± gives the uncertainty stated by the source.

Variants of B1 are the subject of the first data set. The data set can be described thus: abundance fitness (aPCA) (normalised: wild type 0, dead -1); higher = more abundant; growth selection in yeast, the domain comes from the species named. As to conditions: Homo sapiens.
On to K39A, for which the abundance fitness is -0.06 ± 0.14.

Take K39Q: the abundance fitness was -0.323 ± 0.18.

For K39I, the abundance fitness was -0.125 ± 0.18.

On to H5R, for which the abundance fitness turned out to be 0.193 ± 0.086.

For H5W, the abundance fitness is -0.23 ± 0.12.

Regarding H5N, the abundance fitness turned out to be 0.12 ± 0.15.

With C12M, the abundance fitness was -0.643 ± 0.14.

For the variant Y28V, the abundance fitness is -0.05 ± 0.096.

For Y28N, the abundance fitness is -0.403 ± 0.18.

For Y28D, the abundance fitness was -0.526 ± 0.19.

As to Y28W, the abundance fitness was 0.086 ± 0.12.

Consider Y28T, for which the abundance fitness is -0.284 ± 0.14.

For V11K, the abundance fitness came out at 0.127 ± 0.13.

V11A: the abundance fitness was -0.098 ± 0.12.

V11W: the abundance fitness was -0.019 ± 0.12.

On to V11H, for which the abundance fitness worked out at 0.155 ± 0.2.

Consider D34F, for which the abundance fitness was -0.282 ± 0.14.

Take D34I: the abundance fitness is -0.463 ± 0.2.

On to D34Y, for which the abundance fitness was -0.118 ± 0.15.

Regarding D34H, the abundance fitness is -0.069 ± 0.18.

Consider T3E, for which the abundance fitness is 0.074 ± 0.15.

Regarding T3S, the abundance fitness is 0.185 ± 0.11.

Take T3I: the abundance fitness was 0.111 ± 0.17.

As to T3W, the abundance fitness is -0.182 ± 0.14.

Turning to T3D, the abundance fitness is -0.022 ± 0.43.

In the case of T3R, the abundance fitness was 0.024 ± 0.1.

On to M30G, for which the abundance fitness is -0.126 ± 0.086.

Turning to M30W, the abundance fitness is -0.119 ± 0.12.

Q13Y: the abundance fitness was -0.117 ± 0.18.

Consider Q13E, for which the abundance fitness was -0.036 ± 0.13.

On to T23W, for which the abundance fitness is -0.327 ± 0.17.

T23N: the abundance fitness is -0.201 ± 0.24.

In the case of T23H, the abundance fitness is 0.312 ± 0.2.

Turning to H49K, the abundance fitness was -0.2 ± 0.18.

For the variant H49A, the abundance fitness was -0.281 ± 0.11.

Regarding H49G, the abundance fitness was -0.086 ± 0.1.

Take E38C: the abundance fitness was -0.028 ± 0.11.

Turning to E38W, the abundance fitness is -0.281 ± 0.14.

In the case of E38A, the abundance fitness was -0.261 ± 0.11.

Turning to E38F, the abundance fitness was found to be 0.142 ± 0.18.

As to E38P, the abundance fitness is -0.143 ± 0.13.

C50W: the abundance fitness is -0.619 ± 0.12.

With C50E, the abundance fitness was -0.366 ± 0.15.

On to C50F, for which the abundance fitness is -0.567 ± 0.19.

As for I18G, the abundance fitness was -0.042 ± 0.087.

I18F: the abundance fitness was 0.158 ± 0.16.

Regarding G43P, the abundance fitness was -0.209 ± 0.15.

As for G43Q, the abundance fitness is -0.078 ± 0.15.

S46L: the abundance fitness was -0.168 ± 0.1.

S46T: the abundance fitness is -0.07 ± 0.15.

On to S46E, for which the abundance fitness was -0.039 ± 0.13.

For the variant S46Q, the abundance fitness amounted to 0.054 ± 0.14.

Regarding V31D, the abundance fitness is -0.005 ± 0.14.

V31E: the abundance fitness was -0.089 ± 0.13.

For V31Q, the abundance fitness is -0.1 ± 0.14.

In the case of V31R, the abundance fitness was -0.032 ± 0.1.

A27E: the abundance fitness was -0.672 ± 0.14.

On to A27S, for which the abundance fitness is -0.088 ± 0.13.

As for A27N, the abundance fitness is -0.165 ± 0.16.

Take A27K: the abundance fitness was -0.238 ± 0.18.

Regarding P41H, the abundance fitness was -0.378 ± 0.2.

Turning to C24W, the abundance fitness is -0.901 ± 0.16.

Regarding C24R, the abundance fitness is -0.775 ± 0.11.

Regarding C24M, the abundance fitness is -0.751 ± 0.15.

Consider E42G, for which the abundance fitness is -0.114 ± 0.11.

E42V: the abundance fitness is 0.066 ± 0.11.

For the variant L33S, the abundance fitness turned out to be 0.141 ± 0.1.

As to L33C, the abundance fitness was determined as 0.026 ± 0.14.

Consider P25R, for which the abundance fitness is -0.054 ± 0.094.

P25I: the abundance fitness is -0.057 ± 0.27.

Take P25W: the abundance fitness was -0.27 ± 0.13.

Regarding P25K, the abundance fitness was -0.274 ± 0.22.

Take P25F: the abundance fitness came out at 0.079 ± 0.14.

Turning to P25N, the abundance fitness came to 0.185 ± 0.19.

For the variant P25A, the abundance fitness is -0.243 ± 0.11.

As to P25Q, the abundance fitness was -0.058 ± 0.15.

On to A40V, for which the abundance fitness was -0.093 ± 0.094.

Take A40R: the abundance fitness was -0.178 ± 0.12.

For A40H, the abundance fitness turned out to be 0.33 ± 0.2.

With A40W, the abundance fitness was -0.135 ± 0.13.

For the variant A40K, the abundance fitness is -0.043 ± 0.2.

In the case of A40D, the abundance fitness was 0.016 ± 0.17.

For Y8Q, the abundance fitness amounted to 0.427 ± 0.12.

For the variant Y8V, the abundance fitness is -0.124 ± 0.088.

As for Y8C, the abundance fitness was -0.222 ± 0.18.

Regarding G15R, the abundance fitness is 0.075 ± 0.095.

Turning to Q14L, the abundance fitness is -0.347 ± 0.11.

Regarding Y1M, the abundance fitness came to 0.64 ± 0.43.

Y1K: the abundance fitness came out at 0.593 ± 0.38.

With Y1C, the abundance fitness is 0.19 ± 0.22.

K44S: the abundance fitness worked out at 0.102 ± 0.11.

Regarding K44R, the abundance fitness came to 0.05 ± 0.097.

Turning to K44G, the abundance fitness amounted to 0.164 ± 0.095.

In the case of K44M, the abundance fitness is -0.066 ± 0.12.

As for H29N, the abundance fitness was -0.491 ± 0.26.

Regarding H29M, the abundance fitness is -0.686 ± 0.16.

In the case of H29K, the abundance fitness is -0.943 ± 0.19.

Consider G16P, for which the abundance fitness is -0.347 ± 0.12.

Turning to G16I, the abundance fitness is -0.08 ± 0.22.

With E10Q, the abundance fitness was -0.358 ± 0.24.

For the variant E10L, the abundance fitness came out at 0 ± 0.12.

As for E10V, the abundance fitness was -0.197 ± 0.1.

In the case of E10Y, the abundance fitness worked out at 0.133 ± 0.21.

Turning to E10A, the abundance fitness was -0.155 ± 0.1.

In the case of E51P, the abundance fitness was -0.007 ± 0.12.

As for E51N, the abundance fitness is -0.357 ± 0.48.

For the variant E51T, the abundance fitness is -0.174 ± 0.15.

E51F: the abundance fitness is -0.392 ± 0.2.

For D4A, the abundance fitness is -0.066 ± 0.093.

For the variant D4F, the abundance fitness is -0.031 ± 0.16.

With C21V, the abundance fitness was -0.877 ± 0.13.

Turning to C21Q, the abundance fitness was -0.468 ± 0.27.

In the case of C21T, the abundance fitness is -0.467 ± 0.19.

Take C21R: the abundance fitness was -0.743 ± 0.13.

C32H: the abundance fitness is -0.072 ± 0.21.

Regarding C32Y, the abundance fitness was -1 ± 0.21.

As to C32T, the abundance fitness is -0.94 ± 0.17.

Consider C32Q, for which the abundance fitness is -1.08 ± 0.23.

Turning to L20Q, the abundance fitness is -0.022 ± 0.18.

In the case of L20M, the abundance fitness was -0.011 ± 0.14.

Turning to L20N, the abundance fitness was -0.083 ± 0.14.

Turning to L20Y, the abundance fitness is -0.179 ± 0.2.

E17F: the abundance fitness was -0.222 ± 0.11.

As to E17C, the abundance fitness was -0.308 ± 0.14.

On to E17H, for which the abundance fitness was -0.11 ± 0.16.

With D22G, the abundance fitness is -0.021 ± 0.09.

For D22T, the abundance fitness came to 0.089 ± 0.12.

For D22W, the abundance fitness was -0.219 ± 0.14.

Consider Q6Y, for which the abundance fitness is -0.243 ± 0.2.

Regarding P48Q, the abundance fitness was -0.133 ± 0.15.

As to P48T, the abundance fitness was -0.132 ± 0.12.

On to P48S, for which the abundance fitness was found to be 0.058 ± 0.1.

Take P48W: the abundance fitness was -0.622 ± 0.14.

On to P48Y, for which the abundance fitness is -0.101 ± 0.16.

In the case of D36I, the abundance fitness is -0.245 ± 0.17.

For D36H, the abundance fitness is 0.161 ± 0.23.

Turning to D36W, the abundance fitness was -0.37 ± 0.14.

In the case of D36P, the abundance fitness was -0.136 ± 0.13.

E2D: the abundance fitness was determined as 0.033 ± 0.15.

Take E2Y: the abundance fitness worked out at 0.426 ± 0.18.

With M37E, the abundance fitness was -0.392 ± 0.14.

In the case of M37S, the abundance fitness amounted to 0.079 ± 0.12.

In the case of M37R, the abundance fitness was found to be 0.054 ± 0.095.

C9V: the abundance fitness is -1.01 ± 0.11.

Take C9A: the abundance fitness was -0.929 ± 0.11.

On to C47Q, for which the abundance fitness was -0.833 ± 0.21.

Regarding C47W, the abundance fitness was -1.09 ± 0.16.

Consider C47L, for which the abundance fitness is -0.75 ± 0.14.

Consider C47T, for which the abundance fitness was -0.43 ± 0.15.

On to W45S, for which the abundance fitness was 0.098 ± 0.1.

As for W45I, the abundance fitness was 0.057 ± 0.19.

For W45A, the abundance fitness worked out at 0.005 ± 0.13.

For W45V, the abundance fitness was found to be 0.115 ± 0.11.

Take D7S: the abundance fitness worked out at 0.037 ± 0.12.

R26I: the abundance fitness was -0.014 ± 0.15.

With R26H, the abundance fitness was -0.273 ± 0.23.

On to R26Y, for which the abundance fitness was -0.413 ± 0.21.

Take K52I: the abundance fitness is -0.586 ± 0.21.

Take K52L: the abundance fitness was -0.088 ± 0.11.

Consider I19N, for which the abundance fitness is -0.097 ± 0.22.

As to I19W, the abundance fitness was -0.199 ± 0.11.

For the variant I19D, the abundance fitness was -0.154 ± 0.15.

With E53Y, the abundance fitness is -0.323 ± 0.39.

Regarding E53I, the abundance fitness is -0.335 ± 0.39.

The variants in the next data set derive from B2. The description is as above. Conditions: Homo sapiens.
As to L43G, the abundance fitness was -1.12 ± 0.14.

In the case of L43A, the abundance fitness is -0.787 ± 0.15.

In the case of L43P, the abundance fitness is -0.789 ± 0.29.
